Paper PMC11544220

Molecular target: Mycobacterium tuberculosis dUTPase lacking the mycobacteria-specific loop A133-S137 (MtDUT^Δloop) (Mycobacterium tuberculosis) (UniProt P9WNS5)
Test: crystal structure

Substance: Mycobacterium tuberculosis dUTPase lacking the mycobacteria-specific loop A133-S137 (MtDUT^Δloop) (from UniProt P9WNS5 1-154) (enzyme)
- stoichiometry N (subunits in the oligomer): 3
